Measured values published in FireProtDB (doi:10.1021/bi0015717).

Conditions: Homo sapiens; pH 2.7; Thermal; DSC; glycine-HCl 0.05 M; reversible: yes; whole UniProt chain shown

B1: Lysozyme C wild type, P61626 (protein)
chain: MKALIVLGLVLLSVTVQGKVFERCELARTLKRLGMDGYRGISLANWMCLAKWESGYNTRATNYNAGDRSTDYGIFQINSRYWCNDGKTPGAVNACHLSCSALLQDNIADAVACAKRVVRDPQGIRAWVAWRNRCQNRDVRQYVQGCGV
Tm: 64.9 °C
heat capacity change of unfolding: 1.58 kcal/mol/K
unfolding enthalpy (calorimetric): 114 kcal/mol
